Experimental data as given in patent US20230312682A1 (published 2023).

How the values were obtained:
[1] = target: T1, CD47 on the surfaces of cells (human, UniProt Q08722 19-323); test: cell-based or functional assay
[2] = target: T1, CD47 on the surfaces of cells; test: cell-based or functional assay; remark: listed apart in the source
[3] = target: T2, CD47-His (human, UniProt Q08722 19-139); test: ELISA, plate coated with CD47-His, anti-human Fc-HRP detection
T2 construct: also called Human CD47-His; SIRPα-Fc fusion protein's ligand CD47-His
Description: Method: Human CD47-His prepared in Example 1.3 was diluted to 100 ng/mL with a sodium carbonate buffer, and then the dilution was added to a microplate at 100 μL per well. The plate was incubated at room temperature for 2 h and washed with PBST. The plate was blocked by adding PBST containing 1% bovine serum albumin (BSA) to each well and incubated at room temperature for 1 h. The plate was washed twice with PBST, and serially diluted antibodies or fusion proteins were added. The plate was incubated for half an hour and washed twice with PBST. A properly diluted HRP-labeled goat anti-human (Fc-Specific) secondary antibody was added, and the plate was incubated for half an hour. After the plate was washed, a color developing solution was added for color development, and the color development was terminated with a stop solution. The OD450 was read using on a microplate reader. The data were analyzed in GraphPad Prism 6 and plotted, and EC₅₀ was calculated.

[4] = target: T2, CD47-His; test: SPR (Biacore 8K), captured on Protein A chip, CD47-His as analyte
Description: Biacore is a method commonly used for molecular interaction analysis based on the principle of surface plasmon resonance (SPR for short). Here, Biacore was used to determine the affinity of the SIRP mutants described above and anti-CD47 antibodies for the extracellular end of CD47. Experimental method and procedure: The SIRP mutant or anti-CD47 antibodies were diluted to a concentration of 1 μg/mL with HBS-EP⁺ buffer (pH 7.4, purchased from Cytiva, catalog No. BR-1006-69). […] A 6 M solution of guanidine hydrochloride was used as a regeneration buffer. Sensor Chip Protein A (purchased from Cytiva, catalog No. 29-1275-55) was used to capture antibody on Biacore 8K (purchased from GE Healthcare). Then CD47-His was used as an analyte and allowed to flow over the chip, and an association-dissociation curve was obtained. After the chip was regenerated with the regeneration buffer, another cycle was carried out. The data were analyzed using Biacore 8K Evaluation Software.

[5] = target: T1, CD47 on the surfaces of cells; test: flow cytometry on Daudi cells, FITC anti-human Fc
Description: The binding capacity of the prepared SIRP-Fc-IgG1 mutants to CD47 on the surfaces of Daudi cells (human lymphoma cells) was determined by flow cytometry. Experimental procedure: After being counted, Daudi cells were inoculated into a 96-well round-bottom culture plate at 2E5 cells/150 μL by using a PBS solution containing 1% bovine serum albumin (BSA). To the 96-well plate described above were added 50 μL of SIRPα-Fc fusion protein mutants serially diluted with the PBS solution. The plate was incubated at room temperature for 1 h and then centrifuged, and the supernatant was discarded. Then the cells were washed twice with PBS. An FITC-labeled goat anti-human (Fc-Specific) antibody (1:1000 diluted with PBS containing 1% BSA) was added. The plate was incubated at room temperature for half an hour and centrifuged, and the cells were washed and then tested for mean fluorescence intensity (MFI) in the FITC channel on a flow cytometer (CytoFLEX Cytometer System, purchased from Beckman Coulter). The experimental data were processed using the software provided with the flow cytometer, and the mean fluorescence intensity was calculated. The data were analyzed and plotted in GraphPad Prism 6, and EC₅₀ was calculated.

- ADCC on Daudi cells with human PBMCs, EC50 [1]: 197 pM
- ADCC on Daudi cells with human PBMCs, Top (highest degree of ADCC by curve fitting) [1]: 29
- ADCP of Daudi cells by human macrophages, EC50 [2]: 19 pM
- ADCP of Daudi cells by human macrophages, Top (highest degree of ADCP by curve fitting) [2]: 12.5
- EC50 [3]: 55.8 pM
- height of top plateau [3]: 0.795 OD450
- Kd [4]: 104 pM
- koff [4]: 0.00012 s⁻¹
- kon [4]: 1.16e+06 M⁻¹ s⁻¹
- EC50 [5]: 189 pM
- height of top plateau [5]: 3070 MFI
B1: anti-CD47B-Hu-IgG1 (antibody, V domains shown)
VH: QVQLVQSGAEVKKPGASVKVSCKASGYTFANHVIHWVRQAPGQGLEWMGYIYPYNDGTKYNEKFKDRVTLTSDKSTSTVYMELSSLRSEDTAVYYCARGGYYTYDDWGQGTLVTVSS
VL: DVVMTQSPLSLPVTLGQPASISCRSSQSLVHSNGKTYLHWYQQRPGQSPRLLIYKVSNRFSGVPDRFSGSGSGTDFTLKISRVEAEDVGVYYCSQSTHVPYTFGQGTKVEIKR
notes: Human IgG1 / kappa
